# In patent US20210205365A1, “Chimeric Growth Factor Receptors” (Instil Bio (UK) Ltd., priority 2018, published 2021):
# Test system: primary human T-cells
# Experiment: Eltrombopag and IL-2 on CrGFR transduced primary human T-cells, up to 21 days
# Format: cell-based
# Conditions: after 21 days, x3 donors, Eltrombopag
# Protocol: (§1) FIGS. 6A-6B—Analysis of Eltrombopag and IL-2 on primary human T-cells from Donor 1. Primary human T-cells from donor 1 were transduced with the WT TpoR or variant CrGFR and incubated in the presence of IL2 or Eltrombopag. Cells were removed at time points up to 21 days and the proportion of cells expressing the receptor assessed using PE conjugated anti-CD110 antibodies and a MACSQuant analyser.
# as §1, with “FIGS. 7A-7B—Analysis” for “FIGS. 6A-6B—Analysis”, “Donor 2.” for “Donor 1.”, “donor 2” for “donor 1”
# as §1, with “FIGS. 8A-8B—Analysis” for “FIGS. 6A-6B—Analysis”, “Donor 3.” for “Donor 1.”, “donor 3” for “donor 1”
# FIGS. 9A-9B—Selection of optimal CrGFRs for next round of analysis. Flow cytometry plots showing expression of CrGFRs in ×3 donor primary human T-cells after 21 days incubation in Eltrombopag. The receptors TpoR.CD40, TpoR.IL2rγ, TpoR.ITAM1, TpoR.A60, TpoR.LMP1-cyto and TpoR.TpoR-cyto.LMP1-cyto were chosen for future comparison with the wt TpoR.
# Peripheral blood mononuclear cells were isolated from normal healthy donors before activation for 24 hours with T-cell activation and expansion beads (Invitrogen) according to the manufacturer's instructions before addition of lentiviral supernatants.
# Following expansion cells were washed excessively to remove any exogenous IL2 and plated into 96-well U-bottom plates. Cells were supplemented with IL2 (Proleukin) or Eltrombopag (Stratech Scientific, Suffolk, UK). At various time points thereafter cells were either stained with a 1:400 dilution of eFlor-450 fixable viability dye (eBioscience, UK) and counted directly from the wells using a MACSQuant Cytometer, or were stained with DRAQ7 viability dye plus phycoerythrin conjugated anti-CD110 antibodies (Miltenyi Biotec, UK) and analysed using a MACSQuant cytomter. Cell viability and/or transduction level was then analysed using MACSQuantify software (Miltenyi Biotec, UK).
# Next Applicants took these receptors and expressed them in primary human T-cells and exposed these cells to IL-2 or Eltrombopag. Three donor primary human T-cell populations were isolated from buffy coats and transduced with the indicated lentiviral constructs in the presence of CD3/CD28 Dynabeads. Following expansion the cells were incubated with IL-2 or Eltrombopag. Applicants saw an increase in expansion/survival of T-cells with some of the receptors in some of the donors. […] This narrowed Applicants' panel of receptors to analyse further to: TpoR.CD40, TpOR.IL2rγ, TpoR.ITAM1, TpOR.LMP1-cyt, and TpoR.TpoR-cyt-LMP1-cyt.
row,Molecule,proportion of viable cells with a distinct population of CD110+ cells
1,TpoR.TpoR-cyt-LMP1-cyt: SEQ ID NO: 11; TpoR with TpoR cytoplasmic domain fused to LMP-1 cytoplasmic domain,good proportion of viable cells with a distinct population of CD110+ cells
2,"TpoR.ITAM1: SEQ ID NO: 10; TpoR fused to ITAM1 cytoplasmic domain (protein, TpoR-ITAM1; MISC_FEATURE (1)..(491): TpoR Extracellular Domain; MISC_FEATURE (492)..(513): TpoR Transmembrane Domain; MISC_FEATURE (514)..(635): TpoR Cytoplasmic Domain; MISC_FEATURE (636)..(676): ITAM1 Cytoplasmic Domain) MPSWALFMVTSCLLLAPQNLAQVSSQDVSLLASDSEPLKCFSRTFEDLTCFWDEEEAAPSGTYQLLYAYPREKPRACPLSSQSMPHFGTRYVCQFPDQEEVRLFFPLHLWVKNVFLNQTRTQRVLFVDSVGLPAPPSIIKAMGGSQPGELQISWEEPAPEISDFLRYELRYGPRDPKNSTGPTVIQLIATETCCPALQRPHSASALDQSPCAQPTMPWQDGPKQTSPSREASALTAEGGSCLISGLQPGNSYWLQLRSEPDGISLGGSWGSWSLPVTVDLPGDAVALGLQCFTLDLKNVTCQWQQQDHASSQGFFYHSRARCCPRDRYPIWENCEEEEKTNPGLQTPQFSRCHFKSRNDSIIHILVEVTTAPGTVHSYLGSPFWIHQAVRLPTPNLHWREISSGHLELEWQHPSSWAAQETCYQLRYTGEGHQDWKVLEPPLGARGGTLELRPRSRYRLQLRARLNGPTYQGPWSSWSDPTRVETATETAWISLVTALHLVLGLSAVLGLLLLRWQFPAHYRRLRHALWPSLPDLHRVLGQYLRDTAALSPPKATVSDTCEEVEPSLLEILPKSSERTPLPLCSSQAQMDYRRLQPSCLGTMPLSVCPPMAESGSCCTTHIANHSYLPLSYWQQPRVKFSRSADAPAYQQGQNQLYNELNLGRREEYDVLDKRRGR",good proportion of viable cells with a distinct population of CD110+ cells
3,"TpoR.Δ60: SEQ ID NO: 2; TpoR with C-terminal truncation of the cytoplasmic domain (protein, TpoR.delta60; MISC_FEATURE (1)..(491): TpoR Extracellular Domain; MISC_FEATURE (492)..(513): TpoR Transmembrane Domain; MISC_FEATURE (514)..(580): TpoR Cytoplasmic Domain with C-terminal Truncation) MPSWALFMVTSCLLLAPQNLAQVSSQDVSLLASDSEPLKCFSRTFEDLTCFWDEEEAAPSGTYQLLYAYPREKPRACPLSSQSMPHFGTRYVCQFPDQEEVRLFFPLHLWVKNVFLNQTRTQRVLFVDSVGLPAPPSIIKAMGGSQPGELQISWEEPAPEISDFLRYELRYGPRDPKNSTGPTVIQLIATETCCPALQRPHSASALDQSPCAQPTMPWQDGPKQTSPSREASALTAEGGSCLISGLQPGNSYWLQLRSEPDGISLGGSWGSWSLPVTVDLPGDAVALGLQCFTLDLKNVTCQWQQQDHASSQGFFYHSRARCCPRDRYPIWENCEEEEKTNPGLQTPQFSRCHFKSRNDSIIHILVEVTTAPGTVHSYLGSPFWIHQAVRLPTPNLHWREISSGHLELEWQHPSSWAAQETCYQLRYTGEGHQDWKVLEPPLGARGGTLELRPRSRYRLQLRARLNGPTYQGPWSSWSDPTRVETATETAWISLVTALHLVLGLSAVLGLLLLRWQFPAHYRRLRHALWPSLPDLHRVLGQYLRDTAALSPPKATVSDTCEEVEPSLLEILPKSSERTPL",looked good
